# The supplement of paper PMC12042874
# ± gives the uncertainty stated by the source.
# Assay: amyloid nucleation score (Sup35N fusion, yeast selection) (log enrichment); library NNK2; higher = more nucleation; inactive = no reads after selection
# In short: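 The nucleation score is the log enrichment of output over input reads, calculated with DiMSum and centred on the mode score of non-aggregating sequences. Sequences with under 100 input reads were excluded. Reads came from Illumina sequencing of plasmid inserts from psi-negative yeast expressing Sup35N fused to peptides of 20 random codons, induced 24 hours with 100 μM copper sulfate and grown 7 days at 30°C without adenine and uracil.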
row,Substance,amyloid nucleation score
1,SFAYVMCLSG,-0.635 ± 0.55
2,SFCCFFRSSLVFNFLVYISG,0.081 ± 1.1
3,SFDVWAALNENLPHISYFDQ,-0.14 ± 1.1
4,SFFNSWTHFGNCWFL,3.85 ± 0.065
5,SFFQSVMPYHLVYLGQILLN,-1.25 ± 0.34
6,SFFWPPHLKRVLFLQLRTIC,0.777 ± 0.44
7,SFGTFVSGTALLGSMFCTTG,0.285 ± 0.29
8,SFGVGEFDVNYLMERRF,-0.066 ± 0.4
9,SFGWDYVDPQLKNTCTHCRV,-0.795 ± 0.48
10,SFIPRLYLV,-0.016 ± 0.53
11,SFKISDYDECSCFKFYMAPI,7.08 ± 0.082
12,SFKLGSHVSDKKIGMDLCFT,-0.361 ± 0.4
13,SFLFVFSRTGFDCLVDFCFE,-1.76 ± 0.75
14,SFNTLCLRKC,-0.65 ± 0.37
15,SFNWNC,-1.15 ± 0.76
16,SFRLQIRV,-0.417 ± 0.23
17,SFRMKAALRRGNPNRAMDLT,2.33 ± 0.098
18,SFSVLLADGQYRCYLLDSVL,-0.516 ± 0.48
19,SFVSTVFMGRVFMQHAISTR,-1.08 ± 0.55
20,SFYWKMVW,0.512 ± 0.33
21,SGFLDLPVYPVYNHNRTKMI,0.267 ± 0.57
22,SGFMLKWCKY,0.874 ± 0.55
23,SGFSVTNCGN,-0.155 ± 0.26
24,SGFTVEESWTLLCRIVSREG,1.22 ± 0.34
25,SGIGY,0.561 ± 0.62

row,Substance,amyloid nucleation score
1,SGLRYFMFIISNSI,0.58 ± 0.22
2,SGNSENSTLVKNYFSTLSLS,-0.124 ± 0.5
3,SGNVYFLQNRFSVAKQNYTL,-0.448 ± 0.79
4,SGPIEIRPCIPRKLVCSYRH,1.01 ± 0.53
5,SGPSFILSWS,-0.371 ± 0.63
6,SGRLNVSLLGVDSFYTELCA,-0.787 ± 0.54
7,SGRPHDCPHWRFFRSIKGLI,-0.676 ± 0.48
8,SGRRLRGSKVSGWR,-1.12 ± 0.76
9,SGTGKVCVVLVHKTSVQRKC,1.14 ± 0.3
10,SGVIHSVFVWKCLITGGM,-0.711 ± 0.38
11,SGWSNFVLCILHTTTGMKRH,3.95 ± 0.071
12,SGYDFHVRMTCCIWH,9.166 ± 0.04
13,SGYFFPRL,-0.73 ± 1.1
14,SGYGAAITVNFDITEHGGM,5.06 ± 0.066
15,SGYSPSLFCKVFPWANELCS,-1.12 ± 1.1
16,SHEGGD,-0.856 ± 0.34
17,SHFGLDADWVEVPYYRFFRY,-0.8 ± 1
18,SHGAWTLFLSVIFCSAQYR,4.06 ± 0.087
19,SHGWGTAAVWNIAVCRRSLG,0.129 ± 0.39
20,SHLCQLLDDAGLTEQNNSSG,0.234 ± 0.57
21,SHSSMVLRLVRVWCVCRG,0.342 ± 0.4
22,SHSVRTMFPGGVNPRNIRGY,0.548 ± 0.64
23,SHSYFSYTFQILLCEAVRGG,-0.124 ± 0.76
24,SHSYGTER,4.64 ± 0.074
25,SHVTGR,0.602 ± 0.34

row,Substance,amyloid nucleation score
1,SHYCGLVCLELEIWLYP,1.31 ± 0.18
2,SIAKFGWTIGRLGYIHIFIL,-1.16 ± 1.1
3,SIDEVGTANVPHGDW,0.741 ± 0.25
4,SIFSIFWYV,-0.744 ± 0.5
5,SIGGMMVPLISLKYSY,-0.784 ± 1.1
6,SIGHNSSF,0.117 ± 0.49
7,SIIVLRLLY,0.523 ± 0.51
8,SIKPVLVSDFEKAV,0.661 ± 0.49
9,SILDVCVSVT,-0.641 ± 0.55
10,SILGMG,-0.555 ± 0.28
11,SILHSPLSVVYASNISCLF,7.169 ± 0.066
12,SILSIYFDPYGCRL,0.164 ± 1.1
13,SILSRCIRQVLFREPDVWRS,-0.32 ± 0.48
14,SILYVSRLTFR,0.218 ± 1.1
15,SISRFSFIRNTVGRD,0.637 ± 0.37
16,SISVAVRSCQVTVPGKCDCA,7.756 ± 0.035
17,SIVFFNRC,7.562 ± 0.05
18,SIVKLGVYHDLPA,0.721 ± 0.66
19,SIVSHKVITISMFVI,4.5 ± 0.077
20,SIYVSALDGMYSGGRDLWKR,0.601 ± 0.48
21,SKLVSYIDWVGSRILRYTCV,-0.801 ± 1.1
22,SKMPP,0.147 ± 1.1
23,SKQCSKILTIKRMISLTGNE,-0.542 ± 0.49
24,SLDSIFCLTENISYQGIWCR,-1.12 ± 0.28
25,SLDSNNSVFFVCMYSYRGCS,0.359 ± 0.32

row,Substance,amyloid nucleation score
1,SLEVCLIALDYGIQFLSTSA,0.099 ± 0.18
2,SLFLARRASTIARLFKRVYM,0.127 ± 0.63
3,SLFLVRKDFMFCLTSLASVR,2.07 ± 0.16
4,SLGALNKFPRILIVVRYRVC,inactive
5,SLGHGKYMVCWGWYALGFYK,-0.368 ± 0.28
6,SLGNVHRLL,-0.246 ± 0.79
7,SLHMFLVIFSYLLVANRGKS,0.246 ± 0.65
8,SLHRAVYMGVKEYAILTEYG,0.127 ± 0.35
9,SLKLLYKMKLRSGQWAHIYR,0.03 ± 0.43
10,SLLWFKTVSLLRYNQF,-0.363 ± 0.65
11,SLMCIIFLQYWNLLLTIRVT,inactive
12,SLMDLT,0.02 ± 0.54
13,SLMETGYTPSRERMMHHM,-0.095 ± 0.33
14,SLNDKFSLMGLICFWWWCLV,-0.184 ± 0.79
15,SLNKNINRYFGFWYPDSPLL,-1.22 ± 0.78
16,SLRDARGRSYYRFNIISVML,5.591 ± 0.033
17,SLRNDGFNLDPVLHALFVEL,-0.306 ± 0.63
18,SLSFIGQIQSIITNRLNSGV,5.876 ± 0.039
19,SLSGHDLNWRFI,0.32 ± 0.74
20,SLSLINRSVVDAWRGRDGVR,5.107 ± 0.034
21,SLSPIYDDLASVVAGTYEIK,-1.27 ± 0.75
22,SLTLHLSEWGAISPN,-0.347 ± 1
23,SLTLLGLNR,-0.22 ± 0.22
24,SLVENRVGISDVWKVSTLVG,0.042 ± 0.29
25,SLVFVFVITKT,5.526 ± 0.05

row,Substance,amyloid nucleation score
1,SLWKLGSLMSTFFEL,-0.758 ± 0.45
2,SLWVMKCDKDTKYADRSFTL,-0.632 ± 1.1
3,SLYFGIRYENRERCLFDLHV,2.42 ± 0.17
4,SLYVKFPFMSDWLSMNHRMN,-0.64 ± 0.34
5,SMATTE,8.377 ± 0.063
6,SMFFYSFNWLQFYFRVDVHW,-0.311 ± 1.1
7,SMFGRRVWLDCNQPAGGRFA,0.118 ± 0.22
8,SMMQLCV,-0.043 ± 0.54
9,SMNPWYIHWLI,0.003 ± 0.79
10,SMRSIREEAVFVLIVVLRGR,0.261 ± 0.43
11,SMRYNTSLRWDWVDQDAHRL,4.25 ± 0.068
12,SMSCTTSASYHYLIS,0.697 ± 0.47
13,SMSSNVRTYNQFTHL,0.716 ± 0.53
14,SMYNSHHSELVNWLNDYIWL,2.47 ± 0.1
15,SNFQYSIKGQADRLPIVLVL,-0.373 ± 1
16,SNGMRNCKVCEFLLRLYASY,-1.15 ± 0.55
17,SNKHCWWLDCKHLRIMPRCD,-0.363 ± 0.37
18,SNLFGKLYVCFERDPRRKMM,3.32 ± 0.12
19,SNLSLMFLLRVSIGDKKEEE,7.555 ± 0.034
20,SNSNTSEWKTG,-0.156 ± 0.79
21,SNTHISYYWGTNVWLHVDIN,6.194 ± 0.028
22,SNYGCDQWWNITWFE,-0.791 ± 0.61
23,SPDATGYTNKVLGSRLIRRR,1.44 ± 0.38
24,SPTNIRP,-0.185 ± 0.47
25,SPYRLSPTQTLSFCFIRHLP,inactive

row,Substance,amyloid nucleation score
1,SQHMLEL,-0.633 ± 1.1
2,SQMYGLAYVCRQ,6.28 ± 0.076
3,SQRNTLEFVLAGYKTTLVIS,-0.549 ± 0.27
4,SQVLLGQCCMNHKDLSFVWI,0.708 ± 0.34
5,SQVQSFIFSPGLNNSKAEFT,-0.078 ± 0.8
6,SQYMVGPGKRRKKSYGVG,inactive
7,SRFCEH,-0.164 ± 0.39
8,SRKFFPVFN,inactive
9,SRLAY,inactive
10,SRNRFHSYLMSRCNMWQLHY,0.287 ± 0.33
11,SRRETTYHVVMDTFPTFAIT,0.943 ± 0.52
12,SRRGDRSRWCEMVMDVKVCS,5.208 ± 0.041
13,SRRLCVTFAVFGSHKVLLS,inactive
14,SRRVFVKWGNWSCFVVVEDN,0.072 ± 0.16
15,SRSVEGLKLWATNSAGHVVA,0.958 ± 0.3
16,SRSVIFSGESSHHADWFWTV,1.16 ± 0.68
17,SRSYSNLWLGAHVLTRLRHD,-0.337 ± 1.1
18,SRWPLGNMCGKPVEMPEKWS,0.836 ± 0.55
19,SRYKWKTDVHTKWTCHF,1.73 ± 0.091
20,SSDTIQYYSKQNMVRRENC,1.09 ± 0.52
21,SSFNTDFACSWVGYMAVVSM,-0.771 ± 1.1
22,SSFSHLSNAIGMPFICNCEP,-0.385 ± 0.45
23,SSGLGTSVGSGILNSRDKDG,0.434 ± 0.51
24,SSGSRRLWSLRSRIAQRNMQ,2.83 ± 0.17
25,SSKTGWSHGIMVQPK,inactive

row,Substance,amyloid nucleation score
1,SSLDNIWSTSD,0.337 ± 0.57
2,SSMRRGVIRRCNYKL,-0.992 ± 0.24
3,SSMVQR,-0.917 ± 0.55
4,SSPLVNRFPEGVYMNCK,-0.15 ± 0.49
5,SSPSYSSSSHKRTL,2.14 ± 0.25
6,SSRLAKIHSMGWFFIFLGIS,-1.22 ± 1
7,SSRLALEVDKATKRVW,-0.474 ± 1.1
8,SSRWQFYGHF,0.518 ± 0.26
9,SSSFLL,-0.545 ± 0.76
10,SSSMSESAT,inactive
11,SSTFPPF,-0.691 ± 0.41
12,SSVEAELICLWKFCTTHVCT,0.168 ± 0.56
13,SSVLPGVRPGWNTMWWAACL,0.844 ± 0.39
14,SSVRCTYGLNCNQRL,2.92 ± 0.076
15,SSYDLITIKEFIKSGRVK,-0.119 ± 0.35
16,SSYMSRALSCGHSFGKVGAN,0.697 ± 0.81
17,SSYRINPRKPLR,0.028 ± 0.63
18,STAKYVYYTLLR,0.204 ± 0.65
19,STCKLWGVQWFPGGEDRNWK,-0.155 ± 0.42
20,STGCSYHFRMIHATVTTYFG,3.59 ± 0.053
21,STLVWSEIIF,0.592 ± 0.47
22,STNIRSLMLLFCNNIEQASV,7.816 ± 0.038
23,STPIAEV,0.6 ± 0.29
24,STPLGPFLYF,-0.961 ± 0.76
